In patent US20060172938:

Tested on: T1, cyclic peptide CDMWERVSRC
T1 sequence: CDMWERVSRC

Native seprase isolated from LOX cells, sequence (chain): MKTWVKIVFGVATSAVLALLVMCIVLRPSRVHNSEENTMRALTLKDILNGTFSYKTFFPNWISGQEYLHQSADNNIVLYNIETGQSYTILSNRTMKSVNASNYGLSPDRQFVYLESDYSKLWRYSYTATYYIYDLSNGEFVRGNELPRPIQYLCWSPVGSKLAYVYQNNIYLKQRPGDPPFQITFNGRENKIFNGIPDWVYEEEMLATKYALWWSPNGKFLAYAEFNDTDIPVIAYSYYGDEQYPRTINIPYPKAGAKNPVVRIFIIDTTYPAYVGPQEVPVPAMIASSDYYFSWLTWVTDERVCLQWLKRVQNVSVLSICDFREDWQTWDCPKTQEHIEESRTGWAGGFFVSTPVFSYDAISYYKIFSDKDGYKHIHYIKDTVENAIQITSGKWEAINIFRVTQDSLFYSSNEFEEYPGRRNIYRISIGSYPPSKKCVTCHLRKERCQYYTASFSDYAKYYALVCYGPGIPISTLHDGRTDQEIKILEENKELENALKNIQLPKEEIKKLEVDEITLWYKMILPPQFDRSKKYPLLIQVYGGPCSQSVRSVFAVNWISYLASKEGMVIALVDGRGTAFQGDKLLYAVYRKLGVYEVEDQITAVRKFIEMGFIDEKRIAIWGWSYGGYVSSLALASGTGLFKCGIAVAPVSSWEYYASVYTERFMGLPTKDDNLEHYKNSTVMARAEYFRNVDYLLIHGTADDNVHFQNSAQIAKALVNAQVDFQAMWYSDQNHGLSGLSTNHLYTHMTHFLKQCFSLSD

Substance: Native seprase isolated from LOX cells
- increase of the catalytic Km for Gly-Pro-pNA (Lineweaver-Burke analysis): When the concentration of CDMWERVSRC [SEQ ID NO: 3] was 62.5 mM, the catalytic Km value increased by 5 times (from 0.7 mM to 3.5 mM)
